This is an account of results in paper PMC11026450 (Scientific Reports, 2024).

The subject of one assay is PANC1 spheroids. Description: 3D-spheroid growth assay, PANC1. The class given is cell-based, human. The following applies: 3D floating PANC1 spheroids, 0.5 µM, treated day 0, 2, 4, 7, 9 over 10 days; vs vehicle [0.2% DMSO] and DRx-150 [10 µM]; n = 5. Here is the method:
PANC1 cells were seeded at 2 × 10^3 in wells of a round bottom Nunclon™ Sphera™ 96 well-plate with ultra-low attachment coating (Thermo; #174925), containing 200 μL DMEM (2% FBS, 2 mM L-glutamine, 100 U/I Pen-Strep). To encourage spheroid formation, PANC1 cells were centrifuged at 250 × g for 10 min at room temperature. PANC1 spheroids were then allowed to grow for 3 days at 37 °C, 5% CO2, humidified air. Spheroids were then treated with appropriate concentration of DRx-peptide/afatinib by first removing 100 μL of media from each well (careful not to disturb spheroid), followed by addition of 100 μL drug at 2× concentration. Cells were treated five times over a 10 day period (day 0, 2, 4, 7 and 9). Spheroids were imaged on day 0, 2, 4, 7 and 10 using a Nikon Eclipse TS2 microscope and spheroid area quantified using Image J software. Data represented as a fold-difference of relative day 0 spheroid measurement (i.e., day 0 normalised to 1).

The target in assay [1] is T1, full-length human PDE8A1-MBP (human, UniProt O60658-1 1-829).
T1 construct: Phosphodiesterase 8A, isoform PDE8A1, human, full length; the tag was detected with an anti-MBP-HRP antibody (Abcam ab49923); also called human recombinant PDE8A1-MBP; source: recombinant
T1 sequence (O60658 whole entry, canonical isoform): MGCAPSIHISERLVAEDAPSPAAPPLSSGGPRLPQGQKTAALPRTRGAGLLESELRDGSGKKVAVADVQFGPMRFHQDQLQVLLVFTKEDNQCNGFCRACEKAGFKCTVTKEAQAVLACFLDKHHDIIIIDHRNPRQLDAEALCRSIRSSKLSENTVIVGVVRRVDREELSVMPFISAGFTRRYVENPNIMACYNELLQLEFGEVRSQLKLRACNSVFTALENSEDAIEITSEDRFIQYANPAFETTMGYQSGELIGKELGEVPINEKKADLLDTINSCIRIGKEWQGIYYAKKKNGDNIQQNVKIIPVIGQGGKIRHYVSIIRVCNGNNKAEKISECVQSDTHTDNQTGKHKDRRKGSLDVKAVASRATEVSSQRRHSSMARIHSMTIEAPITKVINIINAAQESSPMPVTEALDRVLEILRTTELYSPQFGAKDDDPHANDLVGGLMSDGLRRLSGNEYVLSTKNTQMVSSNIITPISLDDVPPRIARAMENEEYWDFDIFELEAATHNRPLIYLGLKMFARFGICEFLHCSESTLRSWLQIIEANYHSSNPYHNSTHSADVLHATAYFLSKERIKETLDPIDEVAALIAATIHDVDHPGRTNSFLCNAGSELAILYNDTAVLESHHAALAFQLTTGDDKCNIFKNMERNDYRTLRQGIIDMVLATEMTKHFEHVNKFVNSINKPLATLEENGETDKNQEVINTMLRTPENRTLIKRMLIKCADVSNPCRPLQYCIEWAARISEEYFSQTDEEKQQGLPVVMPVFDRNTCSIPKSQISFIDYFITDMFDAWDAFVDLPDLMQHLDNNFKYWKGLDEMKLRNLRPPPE
Description: peptide or protein array; human c-RAF 20mer peptides SPOT-synthesised on cellulose membrane; far western approach: 0.1 μM PDE8A1-MBP overnight at 4 °C in 1x TBS, 5% glycerol, pH 7.4; detected with αMBP-HRP and ECL; MBP alone as negative control; signal normalised to the strongest binding peptide. The following applies: both partners purified.

For the molecule `CN(C)C/C=C/C(=O)Nc1cc2c(Nc3ccc(F)c(Cl)c3)ncnc2cc1O[C@H]1CCOC1` [afatinib, afatinib dimaleate], the “relative spheroid area (fold-difference vs. Day 0)” value with PANC1 spheroids was “significantly attenuated”.

B1: human c-RAF peptide 49 (N241–T260) (peptide, UniProt P04049 241-260, looked up)
peptide: NTSSPSSEGSLSQRQRSTST
notes: c-RAF, human, 20mer of the peptide array, residues N241–T260; source: synthetic peptide, SPOT synthesis on cellulose membrane
On to B1, for which the binding result in assay [1] is “binds”.

B2: human c-RAF peptide 8 (F36–S55) (peptide, UniProt P04049 36-55, looked up)
peptide: FGYQRRASDDGKLTDPSKTS
notes: c-RAF, human, 20mer of the peptide array, residues F36–S55; source: synthetic peptide, SPOT synthesis on cellulose membrane
On to B2, for which the binding result in assay [1] is reported as “binds”.

B3: human c-RAF peptide 123 (H611–H630) (peptide, UniProt P04049 611-630, looked up)
peptide: HSLPKINRSASEPSLHRAAH
notes: c-RAF, human, 20mer of the peptide array, residues H611–H630; source: synthetic peptide, SPOT synthesis on cellulose membrane
As to B3, the binding result in assay [1] is on record as “binds”.

B4: human c-RAF peptide 117 (M581–P600) (peptide, UniProt P04049 581-600, looked up)
peptide: MKRLVADCVKKVKEERPLFP
notes: c-RAF, human, 20mer of the peptide array, residues M581–P600; source: synthetic peptide, SPOT synthesis on cellulose membrane
Take B4: the binding result in assay [1] is listed as “binds”.
